Test results reported in patent publication US20080248064A1.
Like-named read-outs stand apart in the source and are kept apart here.

Assays:
[1] = molecular target: recombinant DEN-2 virus E-glycoprotein antigen (wild type, from pCB8D2-2J-2-9-1) (dengue virus serotype 2 (carboxy-terminal 20% from JE virus)); test: IFA, wild-type plasmid transfected cells
[2] = molecular target: recombinant DEN-2 virus E-glycoprotein antigen (wild type, from pCB8D2-2J-2-9-1) (dengue virus serotype 2 (carboxy-terminal 20% from JE virus))

Substance	mAb reactivity (end point) [1]	mAb reactivity (end point) [2]
mAb 3H5 (antibody)	> 4.4	> 6
mAb 4E5 (antibody)	2.6	> 2.9
mAb 4G2 (antibody)	3.8	> 6
